The labels stand for the following.
T1: Flag-WWP1 ΔWW domain (deletion 341-547) (Homo sapiens (Human), UniProt Q9H0M0 1-922)
T1 construct: The two kept ranges are counted on the 922-residue WWP1 entry; not shown: Flag tag
T1 sequence: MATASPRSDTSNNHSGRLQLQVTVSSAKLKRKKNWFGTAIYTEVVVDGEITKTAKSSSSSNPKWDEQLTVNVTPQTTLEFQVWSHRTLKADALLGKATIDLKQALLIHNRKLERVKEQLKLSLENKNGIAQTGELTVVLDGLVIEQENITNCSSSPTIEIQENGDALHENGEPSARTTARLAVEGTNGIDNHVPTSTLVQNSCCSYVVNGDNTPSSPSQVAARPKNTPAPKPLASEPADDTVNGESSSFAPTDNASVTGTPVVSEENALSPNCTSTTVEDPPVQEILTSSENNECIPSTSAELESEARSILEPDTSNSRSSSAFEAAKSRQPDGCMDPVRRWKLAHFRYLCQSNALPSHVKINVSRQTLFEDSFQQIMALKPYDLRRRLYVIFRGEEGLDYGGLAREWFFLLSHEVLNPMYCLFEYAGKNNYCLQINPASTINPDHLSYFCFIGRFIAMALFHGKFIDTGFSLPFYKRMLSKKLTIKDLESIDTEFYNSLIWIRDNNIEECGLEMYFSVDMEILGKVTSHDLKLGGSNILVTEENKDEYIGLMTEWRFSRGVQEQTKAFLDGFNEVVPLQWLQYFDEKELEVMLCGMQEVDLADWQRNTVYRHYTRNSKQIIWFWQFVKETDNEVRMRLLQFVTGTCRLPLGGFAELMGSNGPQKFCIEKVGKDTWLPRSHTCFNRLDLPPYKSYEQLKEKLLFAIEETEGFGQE

B1: PTEN of MEFs (mouse) (enzyme, UniProt O08586 2-403, looked up)
chain: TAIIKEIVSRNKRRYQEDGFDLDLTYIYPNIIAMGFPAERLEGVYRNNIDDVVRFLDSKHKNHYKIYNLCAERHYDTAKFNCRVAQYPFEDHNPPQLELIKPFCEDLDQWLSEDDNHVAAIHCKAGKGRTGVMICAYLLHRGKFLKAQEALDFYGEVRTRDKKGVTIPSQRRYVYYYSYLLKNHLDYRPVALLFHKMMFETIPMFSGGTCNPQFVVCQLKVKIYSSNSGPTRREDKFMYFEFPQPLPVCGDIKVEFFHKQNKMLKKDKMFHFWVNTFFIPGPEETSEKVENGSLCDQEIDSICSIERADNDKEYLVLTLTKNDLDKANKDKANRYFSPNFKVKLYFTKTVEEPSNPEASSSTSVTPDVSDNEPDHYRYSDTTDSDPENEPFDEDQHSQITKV
notes: also called PTEN in Wwp1+/+ and Wwp1-/- MEFs; PTEN in Nedd4+/+ and Nedd4-/- MEFs
B2: Neural Precursor Cell Expressed Developmentally Down-Regulated Protein 4 polypeptide (NEDD4-1) (enzyme)
chain: MATCAVEVFGLLEDEENSRIVRVRVIAGIGLAKKDILGASDPYVRVTLYDPMNGVLTSVQTKTIKKSLNPKWNEEILFRVHPQQHRLLFEVFDENRLTRDDFLGQVDVPLYPLPTENPRLERPYTFKDFVLHPRSHKSRVKGYLRLKMTYLPKTSGSEDDNAEQAEELEPGWVVLDQPDAACHLQQQQEPSPLPPGWEERQDILGRTYYVNHESRRTQWKRPTPQDNLTDAENGNIQLQAQRAFTTRRQISEETESVDNRESSENWEIIREDEATMYSNQAFPSPPPSSNLDVPTHLAEELNARLTIFGNSAVSQPASSSNHSSRRGSLQAYTFEEQPTLPVLLPTSSGLPPGWEEKQDERGRSYYVDHNSRTTTWTKPTVQATVETSQLTSSQSSAGPQSQASTSDSGQQVTQPSEIEQGFLPKGWEVRHAPNGRPFFIDHNTKTTTWEDPRLKIPAHLRGKTSLDTSNDLGPLPPGWEERTHTDGRIFYINHNIKRTQWEDPRLENVAITGPAVPYSRDYKRKYEFFRRKLKKQNDIPNKFEMKLRRATVLEDSYRRIMGVKRADFLKARLWIEFDGEKGLDYGGVAREWFFLISKEMFNPYYGLFEYSATDNYTLQINPNSGLCNEDHLSYFKFIGRVAGMAVYHGKLLDGFFIRPFYKMMLHKPITLHDMESVDSEYYNSLRWILENDPTELDLRFIIDEELFGQTHQHELKNGGSEIVVTNKNKKEYIYLVIQWRFVNRIQKQMAAFKEGFFELIPQDLIKIFDENELELLMCGLGDVDVNDWREHTKYKNGYSANHQVIQWFWKAVLMMDSEKRIRLLQFVTGTSRVPMNGFAELYGSNGPQSFTVEQWGTPEKLPRAHTCFNRLDLPPYESFEELWDKLQMAIENTQGFDGVD
notes: also called endogenous NEDD4-1; immunopurified recombinant NEDD4-1
B3: Phosphatase And Tensin Homolog Deleted On Chromosome Ten (PTEN) (enzyme)
chain: not shown
notes: also called endogenous PTEN; PTEN WT

Data set [1] deals with the molecule itself. Kind of data set: self-association of PTEN in Wwp1-/- against Wwp1+/+ MEFs, non-reducing/non-denaturing gel (FIG. 5F); similar results in Nedd4-/- MEFs (FIG. 5I). The source says: Similar results were also obtained in Nedd4^{-/-} MEFs (FIG. 5I, FIG. 5J).
(§1) Western Blotting and Immunoprecipitation. For western blotting, cells were lysed in RIPA buffer (Boston BioProducts) supplemented with protease (Roche) and phosphatase (Roche) inhibitor. Proteins were separated on NuPAGE 4-12% Bis-Tris gradient gels (Invitrogen), transferred to polyvinylidine difluoride membranes (Immobilon P, Millipore) and the blots were probed with the indicated antibodies. For immunoprecipitation, PC3, 293T and MEF cells were transfected with the indicated expression vectors by using LIPOFECTAMIN 2000 (Life Technologies). 24 hours after transfection, cells were lysed in RIPA buffer with protease (Roche) and phosphatase (Roche) inhibitor. 500 μg of total lysates were pre-cleared for 30 minutes at 4° C., and then immunoprecipitated with anti-Myc (Cell Signaling Technology 9B11, 1:500), or anti-PTEN (Cell Signaling Technology 9559, 1:500) antibody overnight at 4° C. The Protein-A or Protein-G sepharose beads (GE Healthcare) were then added and incubated for another 2 hours. The immunoprecipitates were washed with RIPA buffer three times. In denaturing conditions, standard Laemmli-Buffer with 5% final concentration of β-mercaptoethanol was added to the samples, which were then boiled and separated on NuPAGE 4-12% Bis-Tris gradient gels (Invitrogen). […]

Data set [2] deals with B3. Kind of data set: co-immunoprecipitation with anti-NEDD4 antibody from PWRE-1 cell lysates after 16 h normoxia (N) or hypoxia (H), western blot. On the procedure: FIG. 13D is a Western blot showing that NEDD4-1 switches its interaction proteins under different physiological conditions. PWRE-1 cells were cultured in normoxic or hypoxic conditions for 16 hours. Total cell lysates were immunoprecipitated with anti-NEDD4 antibody, and then examined by western blot with indicated antibodies.
as §1, with “times.” for “times. In denaturing conditions, standard Laemmli-Buffer with 5% final concentration of β-mercaptoethanol was added to the samples, which were then boiled and separated on NuPAGE 4-12% Bis-Tris gradient gels (Invitrogen).”
(In general: In western blotting, separated proteins are transferred to a membrane and probed.)

The target of the next data set is T2, Flag-WWP1 (Homo sapiens (Human), UniProt Q9H0M0 1-922).
T2 construct: also called full-length Flag-WWP1; recombinant Flag-WWP1; not shown: Flag tag
Kind of data set: recombinant Flag-WWP1 incubated with immunopurified recombinant NEDD4-1, western blot (FIG. 2C). On the procedure:
FIG. 2C is a Western blot showing that WWP1 binds NEDD4-1 in vitro. Recombinant Flag-WWP1 were incubated with immunopurified recombinant NEDD4-1, and then analysed by western blot.

Data set [3] deals with T3, WW domain containing E3 ubiquitin protein ligase 1 (WWP1) (human, UniProt Q9H0M0 1-922, limits assumed).
T3 construct: also called endogenous WWP1; WW domain-containing protein-1
The experiment in a line: anti-PTEN immunoprecipitation from DU145 cells, western blot (FIG. 2B); both ligases found in the same complex.

Data set [4] has as its target T3, WW domain containing E3 ubiquitin …. The experiment in a line: anti-PTEN immunoprecipitation from DU145 cells, western blot (FIG. 2B).
Data set [5] deals with T1, Flag-WWP1 ΔWW domain (deletion 341-547). The experiment in a line: immunoprecipitation and western blot, 293 cells (FIG. 4E). The protocol: Lysates of 293 cells transfected with indicated constructs were analysed by immunoprecipitation and/or western blot with indicated antibodies.
as §1, with “times.” for “times. In denaturing conditions, standard Laemmli-Buffer with 5% final concentration of β-mercaptoethanol was added to the samples, which were then boiled and separated on NuPAGE 4-12% Bis-Tris gradient gels (Invitrogen).”

Here are results for 3 molecules from patent US20190374506A1 (BETH ISREAL DEACONESS MEDICAL CENTER, published 2019).

Consider B1, for which the binding result in data set [1] is “binds”.

B2: the binding result (in data set [2]; in the data set with Flag-WWP1; in data set [3]) was “binds” each time.

On to B3, for which the binding result in data set [4] is given as “binds”; in data set [5], “no binding”.
